Measured values published in patent publication US20180306789A1 (IMMATICS BIOTECHNOLOGIES, published 2018).

biological target: HLA-A*02-presented DCAF4L2-001 on target cells (human); assay: cell-based or functional assay

| Binder | EC50 of target peptide titration (IFNγ release) |
| --- | --- |
| TCR R53P2A9 (TCR, V domains shown) V domain 1: QTVTQSQPEMSVQEAETVTLSCTYDTSESDYYLFWYKQPPSRQMILVIRQEAYKQQNATENRFSVNFQKAAKSFSLKISDSQLGDAAMYFCAYNSYAGGTSYGKLTFGQGTILTVHP V domain 2: DAGVTQSPTHLIKTRGQQVTLRCSPISGHKSVSWYQQVLGQGPQFIFQYYEKEERGRGNFPDRFSARQFPNYSSELNVNALLLGDSALYLCASSLDGTSEQYFGPGTRLTVTE | ~11.8 nM |
| TCR R52P2G11 (TCR, V domains shown) V domain 1: RGNGKNQVEQSPQSLIILEGKNCTLQCNYTVSPFSNLRWYKQDTGRGPVSLTIMTFSENTKSNGRYTATLDADTKQSSLHITASQLSDSASYICVVSAYGKLQFGAGTQVVVTP V domain 2: DAGVIQSPRHEVTEMGQEVTLRCKPISGHNSLFWYRQTMMRGLELLIYFNNNVPIDDSGMPEDRFSAKMPNASFSTLKIQPSEPRDSAVYFCASSLGSPDGNQPQHFGDGTRLSILE | ~8.5 nM |
| TCR R36P3F9 (TCR, V domains shown) V domain 1: SQQGEEDPQALSIQEGENATMNCSYKTSINNLQWYRQNSGRGLVHLILIRSNEREKHSGRLRVTLDTSKKSSSLLITASRAADTASYFCATVSNYQLIWGAGTKLIIKP V domain 2: EAQVTQNPRYLITVTGKKLTVTCSQNMNHEYMSWYRQDPGLGLRQIYYSMNVEVTDKGDVPEGYKVSRKEKRNFPLILESPSPNQTSLYFCASSSTSGGLSGETQYFGPGTRLLVLE | ~3.6 nM |
